Measurements taken from patent publication US5939560A, “Inhibitors of DP-mediated processes, compositions and therapeutic methods thereof” (Ferring B.V., priority 1993, dated 1999).

Substrate: C[C@H](N)C(=O)N1CCC[C@H]1C(=O)Nc1ccc2c(C(F)(F)F)cc(=O)oc2c1
Assay: purified protein, by the assay type
Details: other: substrate of DP-IV assay
Experimental: All compounds were tested in vitro against pure human DP-IV (purchased from M & E, Copenhagen, Denmark). […] Ki values were determined using Dixon plots.

B1: pure human DP-IV (Homo sapiens) (protein)
chain: MKTPWKVLLGLLGAAALVTIITVPVVLLNKGTDDATADSRKTYTLTDYLKNTYRLKLYSLRWISDHEYLYKQENNILVFNAEYGNSSVFLENSTFDEFGHSINDYSISPDGQFILLEYNYVKQWRHSYTASYDIYDLNKRQLITEERIPNNTQWVTWSPVGHKLAYVWNNDIYVKIEPNLPSYRITWTGKEDIIYNGITDWVYEEEVFSAYSALWWSPNGTFLAYAQFNDTEVPLIEYSFYSDESLQYPKTVRVPYPKAGAVNPTVKFFVVNTDSLSSVTNATSIQITAPASMLIGDHYLCDVTWATQERISLQWLRRIQNYSVMDICDYDESSGRWNCLVARQHIEMSTTGWVGRFRPSEPHFTLDGNSFYKIISNEEGYRHICYFQIDKKDCTFITKGTWEVIGIEALTSDYLYYISNEYKGMPGGRNLYKIQLSDYTKVTCLSCELNPERCQYYSVSFSKEAKYYQLRCSGPGLPLYTLHSSVNDKGLRVLEDNSALDKMLQNVQMPSKKLDFIILNETKFWYQMILPPHFDKSKKYPLLLDVYAGPCSQKADTVFRLNWATYLASTENIIVASFDGRGSGYQGDKIMHAINRRLGTFEVEDQIEAARQFSKMGFVDNKRIAIWGWSYGGYVTSMVLGSGSGVFKCGIAVAPVSRWEYYDSVYTERYMGLPTPEDNLDHYRNSTVMSRAENFKQVEYLLIHGTADDNVHFQQSAQISKALVDVGVDFQAMWYTDEDHGIASSTAHQHIYTHMSHFIKQCFSLP
Km: 0.8 µM
